{
  "source": "paper PMC5740061",
  "about": "(Nature Communications, 2017)",
  "parents": {"B1": {"name": "SDGF-TB1G1 (TB1G1 displayed on 293F cells) [designed binder] / Biotinylated His-Avi-TEAD1(194–411) [modified: biotin (BirA-500 kit); biotin (BirA-500 kit)] [not stated] (parent complex)", "chain 1": "PDEYIERAKECCKKGDIQCCLRYFEESGDPNVMLICLFCP", "chain 2": "RSIGTTKLRLVEFSAFLEQQRDPDSYNKHLFVHIGHANHSYSDPLLESVDIRQIYDKFPEKKGGLKELFGKGPQNAFFLVKFWADLNCNIQDDAGAFYGVTSQYESSENMTVTCSTKVCSFGKQVVEKVETEYARFENGRFVYRINRSPMCEYMINFIHKLKHLPEKYMMNSVLENFTILLVVTNRDTQETLLCMACVFEVSNSEHGAQHHIYRLVKD"}},
  "data": [
    {"variants_of": "B1", "assay": "not given", "values": [
      {"variant": "chain 1 PDEYIERAKESSKKGDIQSSLRYFEESGDPNVMLISLFSP", "note": "[chain 1 C11S, chain 1 C12S, chain 1 C19S, chain 1 C20S, chain 1 C36S, chain 1 C39S]", "ratio to parent": "~0.01"},
      {"variant": "chain 1 E25A", "ratio to parent": "~0.07"},
      {"variant": "chain 1 M33A", "ratio to parent": "~0.01"}
    ]},
    {"variants_of": "B1", "assay": "mammalian (293F) surface display of a site-saturation mutagenesis library (every non-Cys single substitution), FACS sorting on biotinylated TEAD1 YBD, two sorting rounds, Illumina sequencing with perfect-match mapping; 20 nM biotinylated TEAD, monovalent 2-step stain (TEAD alone 30 min at 4 °C, dilute, pellet, then 20 nM streptavidin-Alexa Fluor 647), flow sorting on a BD Aria", "values": [
      {"variant": "chain 1 PEEYIERAKECCKKGDIQCCLRYFEESGDPNVMLICLFCP", "note": "[chain 1 D2E]", "enrichment": "1.16 log2 (fold change of variant abundance after two TEAD sorts vs input, normalised to TB1G1)"},
      {"variant": "chain 1 PDEYIERAWECCKKGDIQCCLRYFEESGDPNVMLICLFCP", "note": "[chain 1 K9W]", "enrichment": "-4.41 log2 (fold change of variant abundance after two TEAD sorts vs input, normalised to TB1G1)"},
      {"variant": "chain 1 PDHYIERAKECCKKGDIQCCLRYFEESGDPNVMLICLFCP", "note": "[chain 1 E3H]", "enrichment": "-0.307 log2 (fold change of variant abundance after two TEAD sorts vs input, normalised to TB1G1)"},
      {"variant": "chain 1 PDEYIEPAKECCKKGDIQCCLRYFEESGDPNVMLICLFCP", "note": "[chain 1 R7P]", "enrichment": "-2.49 log2 (fold change of variant abundance after two TEAD sorts vs input, normalised to TB1G1)"},
      {"variant": "chain 1 PDEYIERAQECCKKGDIQCCLRYFEESGDPNVMLICLFCP", "note": "[chain 1 K9Q]", "enrichment": "1.1 log2 (fold change of variant abundance after two TEAD sorts vs input, normalised to TB1G1)"},
      {"variant": "chain 1 PDEYFERAKECCKKGDIQCCLRYFEESGDPNVMLICLFCP", "note": "[chain 1 I5F]", "enrichment": "-8.36 log2 (fold change of variant abundance after two TEAD sorts vs input, normalised to TB1G1)"},
      {"variant": "chain 1 PDEHIERAKECCKKGDIQCCLRYFEESGDPNVMLICLFCP", "note": "[chain 1 Y4H]", "enrichment": "-1.9 log2 (fold change of variant abundance after two TEAD sorts vs input, normalised to TB1G1)"},
      {"variant": "chain 1 PDEYIEYAKECCKKGDIQCCLRYFEESGDPNVMLICLFCP", "note": "[chain 1 R7Y]", "enrichment": "-1.01 log2 (fold change of variant abundance after two TEAD sorts vs input, normalised to TB1G1)"},
      {"variant": "chain 1 PQEYIERAKECCKKGDIQCCLRYFEESGDPNVMLICLFCP", "note": "[chain 1 D2Q]", "enrichment": "-0.201 log2 (fold change of variant abundance after two TEAD sorts vs input, normalised to TB1G1)"},
      {"variant": "chain 1 PDEYIEKAKECCKKGDIQCCLRYFEESGDPNVMLICLFCP", "note": "[chain 1 R7K]", "enrichment": "0.473 log2 (fold change of variant abundance after two TEAD sorts vs input, normalised to TB1G1)"},
      {"variant": "chain 1 PPEYIERAKECCKKGDIQCCLRYFEESGDPNVMLICLFCP", "note": "[chain 1 D2P]", "enrichment": "-2.11 log2 (fold change of variant abundance after two TEAD sorts vs input, normalised to TB1G1)"},
      {"variant": "chain 1 PDDYIERAKECCKKGDIQCCLRYFEESGDPNVMLICLFCP", "note": "[chain 1 E3D]", "enrichment": "0.801 log2 (fold change of variant abundance after two TEAD sorts vs input, normalised to TB1G1)"},
      {"variant": "chain 1 PDEEIERAKECCKKGDIQCCLRYFEESGDPNVMLICLFCP", "note": "[chain 1 Y4E]", "enrichment": "-6.52 log2 (fold change of variant abundance after two TEAD sorts vs input, normalised to TB1G1)"},
      {"variant": "chain 1 PDGYIERAKECCKKGDIQCCLRYFEESGDPNVMLICLFCP", "note": "[chain 1 E3G]", "enrichment": "-0.623 log2 (fold change of variant abundance after two TEAD sorts vs input, normalised to TB1G1)"},
      {"variant": "chain 1 PDEYIERARECCKKGDIQCCLRYFEESGDPNVMLICLFCP", "note": "[chain 1 K9R]", "enrichment": "-1.3 log2 (fold change of variant abundance after two TEAD sorts vs input, normalised to TB1G1)"},
      {"variant": "chain 1 PDRYIERAKECCKKGDIQCCLRYFEESGDPNVMLICLFCP", "note": "[chain 1 E3R]", "enrichment": "-1.81 log2 (fold change of variant abundance after two TEAD sorts vs input, normalised to TB1G1)"},
      {"variant": "chain 1 PDEYISRAKECCKKGDIQCCLRYFEESGDPNVMLICLFCP", "note": "[chain 1 E6S]", "enrichment": "-1.09 log2 (fold change of variant abundance after two TEAD sorts vs input, normalised to TB1G1)"},
      {"variant": "chain 1 PVEYIERAKECCKKGDIQCCLRYFEESGDPNVMLICLFCP", "note": "[chain 1 D2V]", "enrichment": "-2.34 log2 (fold change of variant abundance after two TEAD sorts vs input, normalised to TB1G1)"},
      {"variant": "chain 1 PDEYIERANECCKKGDIQCCLRYFEESGDPNVMLICLFCP", "note": "[chain 1 K9N]", "enrichment": "3.31 log2 (fold change of variant abundance after two TEAD sorts vs input, normalised to TB1G1)"},
      {"variant": "chain 1 PDEYIERAVECCKKGDIQCCLRYFEESGDPNVMLICLFCP", "note": "[chain 1 K9V]", "enrichment": "-8.88 log2 (fold change of variant abundance after two TEAD sorts vs input, normalised to TB1G1)"},
      {"variant": "chain 1 PDEYIERAFECCKKGDIQCCLRYFEESGDPNVMLICLFCP", "note": "[chain 1 K9F]", "enrichment": "-3.52 log2 (fold change of variant abundance after two TEAD sorts vs input, normalised to TB1G1)"},
      {"variant": "chain 1 FDEYIERAKECCKKGDIQCCLRYFEESGDPNVMLICLFCP", "note": "[chain 1 P1F]", "enrichment": "-1.3 log2 (fold change of variant abundance after two TEAD sorts vs input, normalised to TB1G1)"},
      {"variant": "chain 1 PDEYIERGKECCKKGDIQCCLRYFEESGDPNVMLICLFCP", "note": "[chain 1 A8G]", "enrichment": "-4.11 log2 (fold change of variant abundance after two TEAD sorts vs input, normalised to TB1G1)"},
      {"variant": "chain 1 PDVYIERAKECCKKGDIQCCLRYFEESGDPNVMLICLFCP", "note": "[chain 1 E3V]", "enrichment": "-1.39 log2 (fold change of variant abundance after two TEAD sorts vs input, normalised to TB1G1)"},
      {"variant": "chain 1 PDEIIERAKECCKKGDIQCCLRYFEESGDPNVMLICLFCP", "note": "[chain 1 Y4I]", "enrichment": "-0.405 log2 (fold change of variant abundance after two TEAD sorts vs input, normalised to TB1G1)"},
      {"variant": "chain 1 PDEYNERAKECCKKGDIQCCLRYFEESGDPNVMLICLFCP", "note": "[chain 1 I5N]", "enrichment": "-1.34 log2 (fold change of variant abundance after two TEAD sorts vs input, normalised to TB1G1)"},
      {"variant": "chain 1 PDEYIEHAKECCKKGDIQCCLRYFEESGDPNVMLICLFCP", "note": "[chain 1 R7H]", "enrichment": "-0.322 log2 (fold change of variant abundance after two TEAD sorts vs input, normalised to TB1G1)"},
      {"variant": "chain 1 PDEYIEQAKECCKKGDIQCCLRYFEESGDPNVMLICLFCP", "note": "[chain 1 R7Q]", "enrichment": "-0.484 log2 (fold change of variant abundance after two TEAD sorts vs input, normalised to TB1G1)"},
      {"variant": "chain 1 PDEYIERAKECCKKGDIQCCLRYFEESGDPNVILICLFCP", "note": "[chain 1 M33I]", "enrichment": "-3.16 log2 (fold change of variant abundance after two TEAD sorts vs input, normalised to TB1G1)"},
      {"variant": "chain 1 PLEYIERAKECCKKGDIQCCLRYFEESGDPNVMLICLFCP", "note": "[chain 1 D2L]", "enrichment": "-3.53 log2 (fold change of variant abundance after two TEAD sorts vs input, normalised to TB1G1)"},
      {"variant": "chain 1 PSEYIERAKECCKKGDIQCCLRYFEESGDPNVMLICLFCP", "note": "[chain 1 D2S]", "enrichment": "-1.01 log2 (fold change of variant abundance after two TEAD sorts vs input, normalised to TB1G1)"},
      {"variant": "chain 1 PDEYMERAKECCKKGDIQCCLRYFEESGDPNVMLICLFCP", "note": "[chain 1 I5M]", "enrichment": "-1.87 log2 (fold change of variant abundance after two TEAD sorts vs input, normalised to TB1G1)"},
      {"variant": "chain 1 PDEYIEVAKECCKKGDIQCCLRYFEESGDPNVMLICLFCP", "note": "[chain 1 R7V]", "enrichment": "-2.31 log2 (fold change of variant abundance after two TEAD sorts vs input, normalised to TB1G1)"},
      {"variant": "chain 1 EDEYIERAKECCKKGDIQCCLRYFEESGDPNVMLICLFCP", "note": "[chain 1 P1E]", "enrichment": "1.12 log2 (fold change of variant abundance after two TEAD sorts vs input, normalised to TB1G1)"},
      {"variant": "chain 1 PDEYIEDAKECCKKGDIQCCLRYFEESGDPNVMLICLFCP", "note": "[chain 1 R7D]", "enrichment": "-2.25 log2 (fold change of variant abundance after two TEAD sorts vs input, normalised to TB1G1)"},
      {"variant": "chain 1 PDEYITRAKECCKKGDIQCCLRYFEESGDPNVMLICLFCP", "note": "[chain 1 E6T]", "enrichment": "-0.921 log2 (fold change of variant abundance after two TEAD sorts vs input, normalised to TB1G1)"}
    ]}
  ]
}
